One data set has as its target T1, AP2-I_D3 (AP2 domain 3) (UniProt Q8IJW6 775-824).
T1 chain: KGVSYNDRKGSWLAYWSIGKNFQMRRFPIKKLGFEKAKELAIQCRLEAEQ
The data set can be described thus: EMSA; EMSA: 1x binding buffer (listed as 100 mM Tris-HCl pH 7.5, 500 mM KCl, 10 mM DTT), 5 mM MgCl2, 25 ng/ul poly dI-dC, 0.05% NP-40, protein in 25% glycerol, 20 min room temperature, 6% PAGE 0.5x TBE. Particulars: protein: recombinant; tags: N-terminal GST; label: biotin; blunt.

Another data set concerns the target T2, HDP1 homeodomain-like (Plasmodium falciparum, UniProt Q8IKH4 2990-3078).
T2 sequence: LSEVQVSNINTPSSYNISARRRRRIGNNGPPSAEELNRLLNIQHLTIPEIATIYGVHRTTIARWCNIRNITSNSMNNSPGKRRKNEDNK
The data set can be described thus: gcPBM; about 25 ug protein; PBS, 1% milk, 0.2 mg/ml BSA, salmon testes DNA, 0.03% Triton X-100. Particulars: tags: N-terminal GST (pGEX-4T-1), kept; chain copies: 2; label: surface-attached array probe.

The target in a further data set is T3, AP2-HC AP2 DBD (UniProt Q8IKR9 1320-1370).
T3 sequence: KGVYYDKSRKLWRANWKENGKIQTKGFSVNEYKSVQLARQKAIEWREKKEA
The data set can be described thus: EMSA; 1:1 stoichiometry; EMSA: 1x binding buffer (listed as 100 mM Tris-HCl pH 7.5, 500 mM KCl, 10 mM DTT), 5 mM MgCl2, 25 ng/ul poly dI-dC, 0.05% NP-40, protein in 25% glycerol, 20 min room temperature, 6% PAGE 0.5x TBE. The conditions noted are these: protein: recombinant; tags: N-terminal GST; label: biotin; blunt. (In EMSA bound probe runs differently from free probe, usually more slowly.)

Another data set has as its target T4, PF3D7_0420300 D1 (Plasmodium falciparum, UniProt Q8I1N6 1956-2015).
T4 sequence: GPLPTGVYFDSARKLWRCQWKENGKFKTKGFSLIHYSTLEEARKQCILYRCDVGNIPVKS
Nature of the data set: gcPBM; about 25 ug protein; PBS, 1% milk, 0.2 mg/ml BSA, salmon testes DNA, 0.03% Triton X-100. The conditions noted are these: tags: N-terminal GST (pGEX-4T-1), kept; label: surface-attached array probe.

Another data set deals with T5, AP2-LT D1 (Plasmodium falciparum, UniProt Q8IAM1 2520-2577).
T5 sequence: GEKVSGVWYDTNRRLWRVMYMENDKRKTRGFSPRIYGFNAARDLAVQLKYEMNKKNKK
Described as above. Particulars: tags: N-terminal GST (pGEX-4T-1), kept; label: surface-attached array probe.

The target in the next data set is T6, AP2-HC D1 (Plasmodium falciparum, UniProt Q8IKR9 1316-1374).
T6 sequence: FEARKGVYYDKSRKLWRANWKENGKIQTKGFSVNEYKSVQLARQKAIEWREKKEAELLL
Described as above. Particulars: tags: N-terminal GST (pGEX-4T-1), kept; label: surface-attached array probe.

B1: GTGCAC_site10341 (dsDNA)
DNA 1: GATAAAATGAGACCAGTGCATTATTAGTTGTACACC
DNA 2: GGTGTACAACTAATAATGCACTGGTCTCATTTTATC
Turning to B1, in the data set with AP2-I_D3 (AP2 domain 3), the binding result is “binds”. In addition, the binding signal with HDP1 homeodomain-like is 9.81 ln median PBM intensity, better of two orientations.

B2: CACACA_site7148 (dsDNA)
DNA 1: CATATTCCCCCCCACACACACACACGCATACATACC
DNA 2: GGTATGTATGCGTGTGTGTGTGTGGGGGGGAATATG
In the case of B2, the binding result in the data set with AP2-HC AP2 DBD is “binds”. Besides, the binding signal with PF3D7_0420300 D1 is 11 ln median PBM intensity, better of two orientations; with AP2-LT D1, 11 ln median PBM intensity, better of two orientations.

B3: CACACA_site7633 (dsDNA)
DNA 1: TGGGAATAACGACACACACACACACGGATATAAATA
DNA 2: TATTTATATCCGTGTGTGTGTGTGTCGTTATTCCCA
Consider B3, for which the binding signal in the data set with PF3D7_0420300 D1 was 10.4 ln median PBM intensity, better of two orientations; with AP2-LT D1, 10.7 ln median PBM intensity, better of two orientations; with AP2-HC D1, 11.9 ln median PBM intensity, better of two orientations.

The values are drawn from publication PMC11417369, “DNA sequence and chromatin differentiate sequence-specific transcription factor binding in the human malaria parasite Plasmodium falciparum”.
